{
  "source": "patent CN111732655A",
  "about": "(INST MILITARY MEDICINE ACADEMY MILITARY SCIENCES PLA, dated 2020)",
  "key": {"[1]": {"target": "全长SARS-CoV-2 S蛋白 (GenBank ID: QHD43416.1)，展示于HIV假病毒 (SARS-CoV-2, UniProt P0DTC2 14-1273)", "assay": "cell-based or functional assay"}, "SARS-CoV-2真病毒的S蛋白": {"target": "SARS-CoV-2真病毒的S蛋白 (SARS-CoV-2, UniProt P0DTC2 14-1273)", "assay": "cell-based or functional assay"}},
  "note": "“And” between values parts separate entries of the source, which are not always exact repeats. Identical values can stand only once.",
  "data": [
    {"binder": "单克隆抗体4B7 (抗SARS-CoV-2全人源单克隆抗体) (antibody, V domains shown) VH: EVQLVESGGGLVQPGGSLRLSCAASGFPFSSYAMSWVRQAPGKGLEWVSAITGSGGSTYYADSVKGRFTISRDNSKNTLYLHMNSLRAEDTAVYYCAKDDYGDYVLGAFDIWGQGTTVTVSS VL: QSALTQPASVSGSPGQSITISCTGTSSDVGTYKFVSWYQQHPGKAPKLMIYEGSKRPSGVSNRFSGSKSGNTASLTISGLQAEDEADYYCCSYAGSSTLVFGGGTKLTVL", "values": [
      {"measurement": "假病毒模型上EC50 (luciferase, ACE2-293T细胞)", "setting": "[1]", "result": "0.052 ug/ml and 0.35 nM"},
      {"measurement": "病毒感染的细胞模型上EC50 (Vero E6细胞, 结晶紫染色细胞活率)", "setting": "SARS-CoV-2真病毒的S蛋白", "result": "0.38 ug/ml and 2.5 nM"}
    ]}
  ]
}
